Source: IntAct's records for PubMed 11331308

B1: Alpha-parvin (Homo sapiens), Q9NVD7 (parent)
chain: MATSPQKSPSVPKSPTPKSPPSRKKDDSFLGKLGGTLARRKKAKEVSELQEEGMNAINLPLSPIPFELDPEDTMLEENEVRTMVDPNSRSDPKLQELMKVLIDWINDVLVGERIIVKDLAEDLYDGQVLQKLFEKLESEKLNVAEVTQSEIAQKQKLQTVLEKINETLKLPPRSIKWNVDSVHAKSLVAILHLLVALSQYFRAPIRLPDHVSIQVVVVQKREGILQSRQIQEEITGNTEALSGRHERDAFDTLFDHAPDKLNVVKKTLITFVNKHLNKLNLEVTELETQFADGVYLVLLMGLLEGYFVPLHSFFLTPDSFEQKVLNVSFAFELMQDGGLEKPKPRPEDIVNCDLKSTLRVLYNLFTKYRNVE
partner: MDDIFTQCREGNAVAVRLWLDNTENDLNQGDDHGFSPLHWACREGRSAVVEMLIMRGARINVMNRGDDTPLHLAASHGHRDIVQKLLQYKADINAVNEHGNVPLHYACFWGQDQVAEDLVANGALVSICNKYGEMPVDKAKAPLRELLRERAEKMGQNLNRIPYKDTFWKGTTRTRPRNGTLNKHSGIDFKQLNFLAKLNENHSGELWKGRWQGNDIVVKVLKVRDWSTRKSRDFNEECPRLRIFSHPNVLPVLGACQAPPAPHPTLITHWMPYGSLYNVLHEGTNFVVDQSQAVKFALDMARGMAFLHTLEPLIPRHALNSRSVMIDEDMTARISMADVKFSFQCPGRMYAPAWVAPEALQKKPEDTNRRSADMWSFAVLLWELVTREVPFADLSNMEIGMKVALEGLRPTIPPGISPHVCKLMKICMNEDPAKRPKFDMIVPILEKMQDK

Variants of: B1
Conditions: with ilk_mouse Ilk

| effect of a mutation on the interaction | Variant |
| --- | --- |
| disrupting interaction strength | F271D |
